Data reported in the supplement of paper PMC10567573.

B1: IQUB (parent)
chain: EADYEDDSKIAFLMQLQDIQYLTE

Variants of: B1
Test: protein stability index of a GFP-peptide fusion (GPS, HEK-293T) (PSI 1-6); higher = more stable
Settings: c terminus: a fixed tail appended
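Note: lentivirally expressed fusions sorted by FACS into six bins by GFP to DsRed ratio, PSI derived from sequencing read proportions per bin multiplied by bin number.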

Protein stability index: each site, then its substitutions
E24: A 2.91 | C 2.33 | T 2.54 | D 3.32 | G 2.89 | F 1.92 | W 2.45 | L 1.56 | P 3.29 | K 2.73 | N 2.61 | H 2.48 | V 1.81 | M 1.86 | R 2.07 | S 2.71 | Y 2.36 | I 1.67 | Q 2.72
L22: D 4.97 | A 4.16 | V 3.42 | I 3.62 | E 4.7 | Y 3.21 | C 3.67 | T 3.96 | K 3.79 | N 4.65 | G 4.5 | H 4.07 | S 3.99 | M 3.4 | P 4.51 | Q 3.83 | W 3.07 | R 3.94 | F 2.91
I19: N 3.98 | S 4.35 | W 2.64 | R 3.78 | L 2.86 | V 3.86 | K 4.86 | T 4.15 | D 4.94 | C 3.96 | Q 4.11 | Y 3.54 | G 4.31 | A 4.17 | E 4.96 | M 3.68 | F 3.44 | P 4.18 | H 3.98
Q15: Y 2.09
Q20: T 3.05 | H 3.12 | R 3.67 | G 2.97 | W 2.35 | E 3.98 | A 2.5 | P 3.45 | F 1.54 | K 3.46 | Y 1.62 | D 3.86 | V 2.19 | L 1.69 | N 3.22 | I 2.64 | M 2.48 | S 3.61 | C 2.2
D18: T 1.72 | M 1.83 | K 2.65 | L 1.69 | W 2.2 | F 2.33 | E 2.86 | P 2.83 | C 1.84 | V 2.22 | S 2.24 | R 2.32 | I 1.39 | N 2.58 | G 2.92 | A 1.74 | H 2.58 | Y 1.54 | Q 2.68
Y21: Q 3.64 | R 2.99 | N 3.87 | G 4.07 | T 4.06 | I 3.19 | F 2.78 | A 3.81 | W 2.95 | K 3.51 | D 4.45 | C 3.74 | H 3.55 | E 4.21 | L 3.44 | M 3.45 | V 3.51 | S 3.52 | P 3.77
T23: D 4.09 | S 3.21 | L 2.12 | E 4.16 | Q 3.89 | R 3.29 | N 3.89 | F 1.98 | M 1.92 | H 3.29 | G 3.19 | Y 2.21 | V 1.92 | I 1.54 | W 1.97 | K 3.2 | P 4.17 | A 2.26 | C 1.87
L16: P 4.37 | K 4.53 | D 4.58 | R 3.99 | Y 3.64 | I 2.95 | W 3.25 | S 4.26 | C 4.06 | Q 4.19 | V 3.71 | T 3.75 | F 3.42 | G 4.76 | A 4.13 | M 3.55 | E 3.96 | N 4.33 | H 4.43
Q17: G 3.46 | N 3.5 | K 2.87 | M 2.17 | D 3.73 | R 2.57 | F 2.68 | P 3.21 | A 2.5 | T 2.96 | E 3.43 | H 3.13 | S 2.69 | C 2.25
